Measured values as given in the DeepSol protein solubility set.

Experiment: soluble on expression in E. coli; label from the status in PepcDB or PDB records

Q: Which “soluble on expression in E. coli” value does the source give for “MSLGETFTITKMNVERIKQEERLFCKSCASPVMIKAGQIKIPHFAHEKTMKCAFASEGESEEHLAAKKQIMAWYCYQSIPVEVESYFPEIKRQADIFVNGKAVIEFQRSSISISEMIQRTMDYLSIGLEVHWILGQVVRKEKGRICLSAFQQAFIQSDKKLGYHFWHYSTEREICTLYYHLTFEKGNRFFASEMKFSMKAPFSEWKKKLARIITRHAYVKRDRELERQKICFYYAKFKKHGQFMQKLFNAGYYLHYLPKEIGVDLEEQFLVITPAVEWQFDLWEKFFKGLEKGDTFSECCFFESFQSVVTQILTIWLSPNESLKLGKSYLSYLIGEGVLSTIPDNRYRVKRKMVFTNTRAAHIEGHHHHHH” here?
A: not soluble

Q: With “MSLGFHEVRFPTNLSFGSIGGPERRTEIVTLVNGFEERNSLWAHSRRRYDAGVALRSLDDIQALLAFFEARRGQLYGFRWKDWADYRSCPATASPGPKDQPLGIGDGISREFALVKTYRSGSEQYVRPVAKPVAGSVKVAVAGAVLVEGAGFSVDETRGLVTLAAAPAEGAAVTAGFEFDVPVRFDTDRIQISMASFQAGEVPSVPVMEVRVEGHHHHHH” as the sequence, how does the “soluble on expression in E. coli” value read?
A: soluble

Q: Which “soluble on expression in E. coli” value does the source give for “MSLGGANGKSGLRIWRNARLATMADGVAGLGIVEKGAIATRDGLIIYAGAEASMPALAGPGAETVDCEGRWITPGLIDCHTHLVYAGNRANEFEMRLAGATYEEVARAGGGIVSSVKSLRAANEDELVAQTLPRLDALMAEGVTTVEVKSGYGLDLDNEKKSLRAARRLANERPVTIRTTCLAAHALPPEAKGDKEAFVDLVAGTILPGVAAEKLADAVDGFCEGIAFSPEQIARVFDKARALGLPVKLHADQLSNLHGAALAASYGALSADHLEYTDEAGAAAMAKAGTVATILPGAYYFIRETKKPPVDLFRRHGVKMAVATDSNPGTSPLTSLLLTMNMAATLFGLTVDECLAGVTREAARALGLLDKTGTLEAGKSADLAIWDIERPAELVYRMGFNPLHARIWRGQGSLSAPNTQPAFTIRTAKGIITITTDPNSSSVDKLAAALEHHHHHH” here?
A: soluble

Q: With “MSLGHPVDTFRRENKALRESAARLQKAMNGVLETADDGDASARLLEWRQALNELQDVDKHYQRKEHLLSTCLERHGITGPSKVMWGKDDQIRELLKDTSVALRQSDTSVAELKVLAATTGAAAAGAVHEMIYKEEQILLPICLERFTADEWAEIWASSPRYGWCLVEPRQGYKPFTSEAAGRASVDGGVSLPTGALALEQLIAIFSTLPVDLTFVDANDRVAFFSEGPSRVFARSRTIVGRMVQNCHPPRSVDVVERILSDFREGRQNVAEFWLQFVGRFVHIRYFAVRSEDGRYLGTLEVTQDVGPIRALEGERRLLEYAEPSEGHHHHHH” as the sequence, how does the “soluble on expression in E. coli” value read?
A: not soluble

Q: For “MSLGISEAFDLRPDYIISVIKDTKAKLVGFQFPEGLKRKGPELAKIVEEATGAEVLISGDPCFGACDLDRTLLDHVELLFHFGHAELEDVRLSDKVYFIETRSSVDVRPVVEKALPGLKGEKIGLITTVQHVHKLHDVCRVLEAGGKTCVIGRGDSRLAYAGQVLGCNFSAARDEVCDEYLYIGSGDFHPLGVALSTKKRVLAADPFSGEVREVDPSRILRQRSAVIAKSLDAQVFGIIVSSKNGQMRMELASSLKEIAKKHGKEAHLILIDLVTPDQLLQFKVDAFVNTACPRLAVDEVGRFPSPMLTPQEFEIVLGEREWEKLVLDEITEEPVLEHHHHHH”, which “soluble on expression in E. coli” value is on record?
A: soluble

Q: With “MSLGKGEKFQIEFVSANPTGDLHLGHARGAAIGDSLANIMKMAGFDVSREYYINDAGNQINNLVLSAEARYFEALGLDSEFPEDGYRGADIISLGKDLAAKYGDKYVHTSEEERRSVFRVDALAFETGKLRADLEEFRVSFDEWFSETSLYEENKVLPALERLRENGYIYEQDGATWLRTTDFEDDKDRVLIKSDGSYTYFLPDIAYHLNKLERGFDVLIDIWGADHHGYIPRMRAAIEALGYSPNQLEVEIIQLVHLFEDGVQVKMSKRTGKSVTMRDLIEEVGLDATRYFFAMRSSDTHMNFDMSLAKSTSNDNPVYYVQYAHARISSILRSGKEQGLEVTKDADMSLLQTEAEYDLLKVLGEFADVVAEAATKRAPHRIVRYLNDLASSFHRFYNSNKVLDMDNLEVTKARLALIKTAQITLRNGLTLLGVSAPEKEGHHHHHH” as the sequence, how does the “soluble on expression in E. coli” value read?
A: not soluble

Q: With “MSLGKKLKIFFIDDDIALGHICTRIMQEEGYEVLYQTSLNGAKACIVETHPDMIVLDVEIGNKNGIEAVPELKAIAPNTPILFISSHTNSQLVVQALSAGAVAYLKKPLEIDELIAYIKRYAISHPYQIKIGSLLLDTDTQLLCTKELRVIKQLSEAEYKLLKLLVAYKEQLVERRQIEEELWGKVNGNEQGINNLISKLRKYLSIDPTIELVTIPRNGYKLSVNLSEGHHHHHH” as the sequence, how does the “soluble on expression in E. coli” value read?
A: soluble

Q: With “MSLGKLFGTDGIRGVTNTELQPEFALKIGKAIGTYFGKGARILIGRDVRAGGDMLLKAVESGLLSSGVLVYEAGMAPTPAFQYGVKALGYDGGVIITASHNPAEYNGIKVLSPHGIEISREDEDKIEDIYFNSRFHVVEWNGLVNDVKREDKVIETYLRGILSHVDTEKIKSKKYKVLIDPANSVGTLVTPIVARELGCKVFTINGNLDPLFSARTPEPTFESLTESAKVAKQLGVDLAVAHDGDADRAIFIDSMGRVQWGDRSGTLLSYWASVKAPNLPRRIFTAVSSSSLVEEYLKKYNIEVKWTKVGSIDIAHMLFKEKGVAGFEENGGFMYPPHQTVRDGAMSFALMLDMMASENESSAELFNRLPVYYLVKTKVRVTEKSDIKKIYDEVMNKYGNYGNTVTIDGVKIIGSDFWLLVRKSGTEPIIRILVEAKDENKSKELAKELEKLVSELVEGHHHHHH” as the sequence, how does the “soluble on expression in E. coli” value read?
A: soluble

Q: For “MSLGLIVQKFGGTSVGSVEKIQNAANRAIAEKQKGHQVVVVVSAMGKSTDELVSLAKAISDQPSKREMDMLLATGEQVTISLLSMALQEKGYDAVSYTGWQAGIRTEAIHGNARITDIDTSVLADQLEKGKIVIVAGFQGMTEDCEITTLGRGGSDTTAVALAAALKADKCDIYTDVPGVFTTDPRYVKSARKLEGISYDEMLELANLGAGVLHPRAVEFAKNYQVPLEVRSSTETEAGTLIEEESSMEQNLIVRGIAFEDQITRVTIYGLTSGLTTLSTIFTTLAKRNINVDIIIQTQAEDKTGISFSVKTEDADQTVAVLEEYKDALEFEKIETESKLAKVSIVGSGMVSNPGVAAEMFAVLAQKNILIKMVSTSEIKVSTVVSENDMVKAVESLHDAFELSKHPSAVEGHHHHHH”, which “soluble on expression in E. coli” value is on record?
A: soluble

Q: Which “soluble on expression in E. coli” value does the source give for “MSLGMTHSFITEWDNTPKTKMRFSREVSFAELQRVTNCMAKHEIPSIEDFIWVLKEAAKVLSTLPNNVHVIPEPNDRLIFVGDLHGCFETLIRLFLGYPQQNIPRTGFPGEIVDGRRLVYFFNGDFVDRGGSGYQIVFLLAYMAIACPGSCYLNRGNHESEMFGLSTQGMLGNKFMSEMAGKFSGMDPETYRPAIGEFFCALPIAHTIDRNIFMVHGGVPLGDDLSNVPRAAPQSYFSTGSPAPIPKGLKPYKISNLDNLTPSRQKTTNFEDNPRKQNELWHSFVWNYDRLPYSADFMEENNFKTMVHSHTATPFHQITSFLPLEKTSGEKYSIQSVIKNQEMFDRMKAFFASHQLANSSKLSILEIFSSPTEGHHHHHH” here?
A: not soluble

Q: For “MSLGNDNEKSTTKTSPDKIKFLETSELLTLNTTAEEDFASFTAQNQVFEGLYTLDQKDNFVPGVAGGMPEISADQTKYTIKLKKNAKWSDGSQVTADDFVYAWRRAVDPKTAPGYSALFKDSIKNATEINEGKLPVTDLGVVATDPTTLEITLKKPVPYFISLLSFETFFPQKESFVKKQGDKYGTDSAHTLYNGPFVMKDWGGNITNKWTYAKNDQYWDKDNVKVNEIDVQVAKDINAGVNLYNTNEADRVPLSGDFAKQYKDKKDFQTEKDALISYLRMNQKRDGKATPLANNSLRHALNLAVDKKQLTDRILGDGSFPANGLLPKDFVQNPTTGADFRTDSGDHLVYNKEEALKYWKQAQKELGTDKVTIELLGDDQETTKTIFAYLKAQFEDNLPGVTIKVKNMPSKSATQLTSDGNYDLSLAAWMPDFKDPWTYSSLFLSDYFNNHMSYNSPAYDRLVKSTDTTLATKPEERWNAFVASEKVLLDDDAAILPLYQHQTAVLQRTDITGVQKHAFGSPYSYKFIRVEKEGHHHHHH”, which “soluble on expression in E. coli” value is on record?
A: soluble

Q: For “MSLGRFKTLLNQEDYLILHGALGTELEFLGYDVSGKLWSAKYLLENPSIIQTIHETYLRSGSDIVTTSSYQASYQGLCDYGLSQEEAEKMIALTVSLAKNAREKVWQELSEKEKQVRPYPLISGDVGPYAAYLADGSEYTGNYGQLDKEVLKDFHRSRIKILVDEGSDLLALETIPNFLEAQALVELLQEEFPSVEAYMSFTAQNGTTISDGTAIEEVAELIDKASQILALGINCSSPSVYSSLLKKIADITDKPLVTYPNSGEVYDGQHQMWTQSADISHTLLENTKIWHTFGAKVVGGCCRTRPNDIESLSRGLREEGHHHHHH”, which “soluble on expression in E. coli” value is on record?
A: soluble

Q: With “MSLGRVTITAVAREAGVSAITVSRYFNQPEQVSPELRERIAAVVNALGYVPNLVAGGLASARSRVVAMVIPNISGPIFANTIQGFSDTLSQHGFQLLLASSYFSAEQEESAVRAFLGWSPAALVLTSRFHSPATEKMIEQTDVPVIETWDHQPERSPIQIGFSHYDVGVTAARYLYDKGYRRIAFVQNSIAGDFSALERRDGYIATLEGLGIKPWVFVPDAGRAPFEAGKQAMETLMSQTPRPDAIFFANDNLAAGALLASQRAGLHIPKDCAVMGFGDYAFAEMMLPSLTTIKPPALEIGVLAATRVLESLGVLPVEGDIQRLNLLECRLVERESTEGHHHHHH” as the sequence, how does the “soluble on expression in E. coli” value read?
A: soluble

Q: For “MSLGSIPNDIKVPLVYIEIDNSNALSGTPALAQKVLVIGQQLGTGTASPLTLNRITNSESQMDALFGKGSMLARSLKMFRKSNDYTDVYALGVADLSAGSAAKGEITIAATTAKAGVIALLIAGESVQVGVDEAATAATIATAMIAKINANTNLPVTAALKAATTETVELTAKWKGQTTNDIDIRYNYYDGEQLPQGVTLTVVEMTGGAGTPDMDAVIAAIPNEWYNHIVMPYNDTQSMNKLRDELVNRWGPLKMIEGIAYTAFRGTFAESGAFGVARNDYLFTCMGTNKAPHSPWEWAAAYAGQASYSLGIDPARPLQTLVMTSLLPPAKEIQWDPTERNLLLGDGIATYMVTPSGEVAIEREVSMYRENSYGDPDPSYLDITTPATLGYLRYSLRVMVTNRFPRHKLAGDDVLARLDPGQPVVTPKIMRNAMLELANNDWVPKGLMEDFDGFKETLEVYRDSSDQNRLNCVFKPDIVNQFRIFAALMQFKL”, which “soluble on expression in E. coli” value is on record?
A: not soluble

Q: For “MSLGSRKKFGATYMTTNNRFYEIINDEIRSVVESNGDILVTRDAALDKNKQMQQIYEFIKLKVKAIFINPVDWKQIKPALIAAKNAGIPVIVVDTPVYDDKLVACTVISDNYDAGVQCAKYLMKSKSKANIMLIEHSKAKSGIDRIKGFVDTIGASKQYKIVAAGDSEGQLDKTMSLVDDLIKKHTNVDAIMALNDPSALGALAALKENGLLGKVMVFGVDGSPEAKTMIHDGFMTATSAQFPNKIGHIAAEKAYDILKGKRLKRDVIVPISLISKENLLKYEISGWKEGHHHHHH”, which “soluble on expression in E. coli” value is on record?
A: soluble

Q: For “MSLGTPVTLRMDTTDADGRITLGDLFDGVSGPAANVVVAARMSATAVLEAGQVQMSARRAGYVWTNANGVRRIIVREGVDNGGVSSSAAPGAQLAGARLAGAPRANVEVLPYARSLSAGEIVQPQDLIWVKMAGAPADAPRDADAVIGLAAKRPLREGAPVGMKDVAAAQVIKSGDLITITYEDGGISLSLQGKAMAAAAAGDVFAVQNTLSKKIIQAVAVGPGAAAVGPQEGHHHHHH”, which “soluble on expression in E. coli” value is on record?
A: not soluble
